The record followed here is the Immune Epitope Database (IEDB).

Targets include HLA-A*23:01; HLA-A*24:02; HLA-A*30:02; HLA-A*01:01; HLA-A*29:02; HLA-A*26:01; HLA-A*32:01.
Holding throughout (experiment): IEDB peptide-MHC binding, purified MHC/competitive/radioactivity; filed as Kd, often an IC50 or EC50 that approximates it; ≥ and ≤ were set here for values at or beyond the usual limits of such assays
A further assay has as its target HLA-A*11:01. The settings on record: source organism: Dengue virus 1 Brazil/97-11/1997.
In the next assay the target is HLA-A*68:01. As to conditions: source organism: Dengue virus 1 Brazil/97-11/1997.
For a further assay, the target named is HLA-A*33:01. The settings on record: source organism: Dengue virus 1 Brazil/97-11/1997.
A further assay has as its target HLA-A*31:01. The settings on record: source organism: Dengue virus 1 Brazil/97-11/1997.
Where [1] appears, read: source organism: SARS coronavirus Tor2.
The mark [2] stands for this setting: source organism: Dengue virus 2 Jamaica/1409/1983.
The mark [3] stands for this setting: source organism: Mammarenavirus lassaense.
Setting [4] is: source organism: Mammarenavirus machupoense.
The mark [5] stands for this setting: source organism: Vaccinia virus Copenhagen.
Where [6] appears, read: source organism: Mammarenavirus guanaritoense.

Regarding LSFKELLVY, the Kd in the assay with HLA-A*23:01 (setting [1]) was 2490 nM; with HLA-A*24:02 (setting [1]) it was 9230 nM; in the assay with HLA-A*30:02 (setting [1]) it was 50.8 nM; with HLA-A*01:01 (setting [1]), 85.3 nM; with HLA-A*29:02 (setting [1]), 1.55 nM; with HLA-A*26:01 (setting [1]), 10900 nM.
As to LTGYGTVTM, the Kd in the assay with HLA-A*32:01 (setting [2]) came to 15400 nM.
MLMRVAVGI: in the assay with HLA-A*32:01 (source organism: Vaccinia virus WR), the Kd stood at 0.692 nM.
For PEDPIEVALY, the Kd was not below 70000 nM with HLA-A*23:01 (setting [3]); not below 70300 nM with HLA-A*24:02 (setting [3]); 1220 nM in the assay with HLA-A*30:02 (setting [3]); not below 70400 nM with HLA-A*01:01 (setting [3]); 10100 nM with HLA-A*29:02 (setting [3]); not below 69700 nM in the assay with HLA-A*26:01 (setting [3]).
Turning to PITAAAWYLW, the Kd in the assay with HLA-A*32:01 (setting [2]) turned out to be 1680 nM.
As for PTITQMNLKY, the Kd was not below 70000 nM with HLA-A*23:01 (setting [1]); not below 70300 nM with HLA-A*24:02 (setting [1]); 1120 nM with HLA-A*30:02 (setting [1]); 89.6 nM with HLA-A*01:01 (setting [1]); 48.4 nM in the assay with HLA-A*29:02 (setting [1]); 827 nM with HLA-A*26:01 (setting [1]).
Consider QCGDPSSFEY, for which the Kd with HLA-A*23:01 (setting [4]) is not below 68800 nM; in the assay with HLA-A*24:02 (setting [4]) it was not below 70300 nM; in the assay with HLA-A*30:02 (setting [4]) it was 1580 nM; in the assay with HLA-A*01:01 (setting [4]), 500 nM; with HLA-A*29:02 (setting [4]), 600 nM; with HLA-A*26:01 (setting [4]) it was not below 69700 nM.
Take QYIYMGEPL: the Kd in the assay with HLA-A*23:01 (setting [2]) worked out at 205 nM.
Consider RMLINRFTM, for which the Kd with HLA-A*32:01 (setting [2]) was determined as 95.7 nM.
Regarding SGCVVSWKNK, in the assay with HLA-A*32:01 (setting [2]), the Kd stood at 9640 nM.
Take SIIFINYTM: in the assay with HLA-A*32:01 (setting [5]), the Kd came to 6.51 nM.
Take SQSDTVFDH: the Kd with HLA-A*23:01 (source organism: Variola virus) was not below 44400 nM; with HLA-A*24:02 (source organism: Variola virus) it was not below 77500 nM; with HLA-A*30:02 (source organism: Variola virus), not below 76900 nM; in the assay with HLA-A*01:01 (source organism: Variola virus), not below 23800 nM; in the assay with HLA-A*29:02 (source organism: Variola virus), not below 48300 nM; with HLA-A*26:01 (source organism: Variola virus), not below 77900 nM.
Regarding TAEDMLNPNY, the Kd with HLA-A*23:01 (setting [1]) was not below 70000 nM; in the assay with HLA-A*24:02 (setting [1]), not below 70300 nM; with HLA-A*30:02 (setting [1]), 1070 nM; in the assay with HLA-A*01:01 (setting [1]), 1040 nM; with HLA-A*29:02 (setting [1]), 5500 nM; with HLA-A*26:01 (setting [1]), 17600 nM.
TDNVHTWTEQ: the Kd in the assay with HLA-A*32:01 (setting [2]) was not below 37600 nM.
On to TGCAVSWSGK, for which, in the assay with HLA-A*32:01 (source organism: Dengue virus 4 Philippines/H241/1956), the Kd turned out to be 8440 nM.
On to TVMDVISRR, for which the Kd was 30.2 nM with HLA-A*11:01; 7.98 nM with HLA-A*68:01; 7.07 nM in the assay with HLA-A*33:01; 2340 nM with HLA-A*26:01 (source organism: Dengue virus 1 Brazil/97-11/1997); not below 39300 nM in the assay with HLA-A*31:01.
With TYVPSQERNF, the Kd in the assay with HLA-A*23:01 (setting [1]) is 39.2 nM; in the assay with HLA-A*24:02 (setting [1]), 72.3 nM; with HLA-A*30:02 (setting [1]), 14100 nM; with HLA-A*01:01 (setting [1]), not below 70400 nM; in the assay with HLA-A*29:02 (setting [1]), 1310 nM; with HLA-A*26:01 (setting [1]), not below 69700 nM.
Take VDNVHTWTEQ: in the assay with HLA-A*32:01 (source organism: Dengue virus 4 Dominica/814669/1981), the Kd is not below 34100 nM.
As to VPDIPELSY, the Kd was not below 77700 nM in the assay with HLA-A*23:01 (setting [6]); not below 77500 nM in the assay with HLA-A*24:02 (setting [6]); not below 25300 nM in the assay with HLA-A*30:02 (setting [6]); 3070 nM in the assay with HLA-A*01:01 (setting [6]); 11700 nM with HLA-A*29:02 (setting [6]); not below 49300 nM with HLA-A*26:01 (setting [6]).
On to VTPSGTWLTY, for which the Kd in the assay with HLA-A*23:01 (setting [1]) is not below 49100 nM; with HLA-A*24:02 (setting [1]), not below 57700 nM; with HLA-A*30:02 (setting [1]) it was 45.3 nM; with HLA-A*01:01 (setting [1]), 66.1 nM; with HLA-A*29:02 (setting [1]) it was 66.1 nM; in the assay with HLA-A*26:01 (setting [1]), 392 nM.
Take VTYELRYTL: in the assay with HLA-A*32:01 (setting [5]), the Kd was 11.9 nM.
With WFITQRNFF, the Kd with HLA-A*23:01 (setting [1]) was 2730 nM; in the assay with HLA-A*24:02 (setting [1]), not below 32500 nM; with HLA-A*30:02 (setting [1]) it was 137 nM; in the assay with HLA-A*01:01 (setting [1]), 1090 nM; with HLA-A*29:02 (setting [1]), 13.6 nM; with HLA-A*26:01 (setting [1]) it was 172 nM.
Take YWISNGTGNI: in the assay with HLA-A*23:01 (source organism: Dengue virus 3 Martinique/1243/1999), the Kd was determined as 165 nM.

One may read the Kd as the free concentration of one partner at which half of the binding sites on the other are occupied at equilibrium, for simple one-to-one binding.
